Experimental data taken from US20220064329A1 (Novo Nordisk, published 2022).

T1: recombinant human activated Factor VII (FVIIa) (human, UniProt P08709 61-212; P08709 213-466, ten glutamate residues of the Gla domain may be gamma-carboxylated)
T1 construct: chains tethered by a disulfide bond; also called Factor VIIa; rFVIIa
T1 sequence 1: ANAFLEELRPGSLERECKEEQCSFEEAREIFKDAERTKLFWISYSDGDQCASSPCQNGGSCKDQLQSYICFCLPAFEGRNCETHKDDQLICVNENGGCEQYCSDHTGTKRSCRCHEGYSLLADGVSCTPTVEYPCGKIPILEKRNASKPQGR
T1 sequence 2: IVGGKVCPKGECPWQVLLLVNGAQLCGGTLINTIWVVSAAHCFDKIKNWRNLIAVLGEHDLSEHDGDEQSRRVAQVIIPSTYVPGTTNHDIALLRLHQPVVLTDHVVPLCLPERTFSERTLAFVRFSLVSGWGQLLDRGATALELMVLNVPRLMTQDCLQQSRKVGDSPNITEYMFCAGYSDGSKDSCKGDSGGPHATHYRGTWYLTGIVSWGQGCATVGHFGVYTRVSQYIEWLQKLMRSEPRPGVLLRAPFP


Molecular target: T1, recombinant human activated Factor VII …
Experiment: BLI (Fortebio)

Binder	Kd [nM]
VH SEQ ID NO 602 / VL SEQ ID NO 310 (antibody, IgG4, V domains shown, humanized 11F2; IgG4 S228P/kappa) VH: QVQLQESGPGLVKPSQTLSLTCTVSGGSISSDSAWSWIRQPPGKGLEWIGYIQYSGSTNYNPSLKSRVTISVDTSKNQFSLKLSSVTAADTAVYYCARSVNYYGNSFAVGYWGQGTLVTVSS VL: EIVLTQSPATLSLSPGERATLSCRASQGISDYLAWYQQKPGQAPRLLIKYASQPATGIPARFSGSGSGTDFTLTISSLEPEDFAVYYCQNGHSFPLTFGQGTKLEIK	48
VH SEQ ID NO 602 / VL SEQ ID NO 478 (antibody, IgG4, V domains shown, humanized 11F2; IgG4 S228P/kappa) VH: QVQLQESGPGLVKPSQTLSLTCTVSGGSISSDSAWSWIRQPPGKGLEWIGYIQYSGSTNYNPSLKSRVTISVDTSKNQFSLKLSSVTAADTAVYYCARSVNYYGNSFAVGYWGQGTLVTVSS VL: EIVLTQSPATLSLSPGERATLSCRASQGVSDYLHWYQQKPGQAPRLLIKYASQPATGIPARFSGSGSGTDFTLTISSLEPEDFAVYYCQQGHSFPLTFGQGTKLEIK	24
VH SEQ ID NO 602 / VL SEQ ID NO 366 (antibody, IgG4, V domains shown, humanized 11F2; IgG4 S228P/kappa) VH: QVQLQESGPGLVKPSQTLSLTCTVSGGSISSDSAWSWIRQPPGKGLEWIGYIQYSGSTNYNPSLKSRVTISVDTSKNQFSLKLSSVTAADTAVYYCARSVNYYGNSFAVGYWGQGTLVTVSS VL: EIVLTQSPATLSLSPGERATLSCRASQGLSDYLAWYQQKPGEAPRLLIKYASQPATGIPARFSGSGSGTDFTLTISSLEPEDFAVYYCQNGHSFPLTFGQGTKLEIK	51
VH SEQ ID NO 602 / VL SEQ ID NO 430 (antibody, IgG4, V domains shown, humanized 11F2; IgG4 S228P/kappa) VH: QVQLQESGPGLVKPSQTLSLTCTVSGGSISSDSAWSWIRQPPGKGLEWIGYIQYSGSTNYNPSLKSRVTISVDTSKNQFSLKLSSVTAADTAVYYCARSVNYYGNSFAVGYWGQGTLVTVSS VL: EIVLTQSPATLSLSPGERATLSCRASQGVSDYLAWYQQKPGQAPRLLIKYASQPATGIPARFSGSGSGTDFTLTISSLEPEDFGVYYCQNGHSFPLTFGQGTKLEIK	590
VH SEQ ID NO 602 / VL SEQ ID NO 406 (antibody, IgG4, V domains shown, humanized 11F2; IgG4 S228P/kappa) VH: QVQLQESGPGLVKPSQTLSLTCTVSGGSISSDSAWSWIRQPPGKGLEWIGYIQYSGSTNYNPSLKSRVTISVDTSKNQFSLKLSSVTAADTAVYYCARSVNYYGNSFAVGYWGQGTLVTVSS VL: EIVLTQSPATLSLSPGERATLSCRASQGVSDYLAWYQQKPGQAPRLLIKYASQPATGIPARFSGSGSGTDFTLTISSLEPEDFAVYYCQNGHSFPLTFGAGTKLEIK	90
VH SEQ ID NO 602 / VL SEQ ID NO 438 (antibody, IgG4, V domains shown, humanized 11F2; IgG4 S228P/kappa) VH: QVQLQESGPGLVKPSQTLSLTCTVSGGSISSDSAWSWIRQPPGKGLEWIGYIQYSGSTNYNPSLKSRVTISVDTSKNQFSLKLSSVTAADTAVYYCARSVNYYGNSFAVGYWGQGTLVTVSS VL: EIVLTQSPATLSLSPGERATLSCRASQGVSDYLAWYQQKPGQAPRLLIKYASQPATGIPARFSGSGSGTDFTLTISSLEPEDVAVYYCQNGHSFPLTFGQGTKLEIK	600
VH SEQ ID NO 602 / VL SEQ ID NO 414 (antibody, IgG4, V domains shown, humanized 11F2; IgG4 S228P/kappa) VH: QVQLQESGPGLVKPSQTLSLTCTVSGGSISSDSAWSWIRQPPGKGLEWIGYIQYSGSTNYNPSLKSRVTISVDTSKNQFSLKLSSVTAADTAVYYCARSVNYYGNSFAVGYWGQGTLVTVSS VL: EIVLTQSPATLSLSPGERATLSCRASQGVSDYLAWYQQKPGQAPRLLIKYASQPATGIPARFSGSGSGTDFTLTISSLEPEDFAVYYCQNGHSFPLTFGQGTKLEIK	310
VH SEQ ID NO 602 / VL SEQ ID NO 390 (antibody, IgG4, V domains shown, humanized 11F2; IgG4 S228P/kappa) VH: QVQLQESGPGLVKPSQTLSLTCTVSGGSISSDSAWSWIRQPPGKGLEWIGYIQYSGSTNYNPSLKSRVTISVDTSKNQFSLKLSSVTAADTAVYYCARSVNYYGNSFAVGYWGQGTLVTVSS VL: EIVLTQSPATLSLSPGERATLSCRASQGVSDYLAWYQQKPGEAPRLLIKYASQPATGIPARFSGSGSGTDFTLTISSLEPEDFAVYYCQNGHSFPLTFGQGTKLEIK	370

Binders with a lower Kd, results first:

Kd [nM]	Binder
13	VH SEQ ID NO 602 / VL SEQ ID NO 454 (antibody, IgG4, V domains shown, humanized 11F2; IgG4 S228P/kappa) VH: QVQLQESGPGLVKPSQTLSLTCTVSGGSISSDSAWSWIRQPPGKGLEWIGYIQYSGSTNYNPSLKSRVTISVDTSKNQFSLKLSSVTAADTAVYYCARSVNYYGNSFAVGYWGQGTLVTVSS VL: EIVLTQSPATLSLSPGERATLSCRASQGVSDYLHWYQQKPGEAPRLLIKYASQPATGIPARFSGSGSGTDFTLTISSLEPEDFAVYYCQNGHSFPLTFGQGTKLEIK
14	VH SEQ ID NO 602 / VL SEQ ID NO 342 (antibody, IgG4, V domains shown, humanized 11F2; IgG4 S228P/kappa) VH: QVQLQESGPGLVKPSQTLSLTCTVSGGSISSDSAWSWIRQPPGKGLEWIGYIQYSGSTNYNPSLKSRVTISVDTSKNQFSLKLSSVTAADTAVYYCARSVNYYGNSFAVGYWGQGTLVTVSS VL: EIVLTQSPATLSLSPGERATLSCRASQGISDYLHWYQQKPGQAPRLLIKYTSQPATGIPARFSGSGSGRDFTLTISSLEPEDFAVYYCQNGHSFPLTFGAGTKLELK
15	VH SEQ ID NO 602 / VL SEQ ID NO 462 (antibody, IgG4, V domains shown, humanized 11F2; IgG4 S228P/kappa) VH: QVQLQESGPGLVKPSQTLSLTCTVSGGSISSDSAWSWIRQPPGKGLEWIGYIQYSGSTNYNPSLKSRVTISVDTSKNQFSLKLSSVTAADTAVYYCARSVNYYGNSFAVGYWGQGTLVTVSS VL: EIVLTQSPATLSLSPGERATLSCRASQGVSDYLHWYQQKPGQAPRLLIKYASQPATGIPARFSGSGSGTDFTLTISSLEPEDFAVYYCQNGHSFPLTFGAGTKLEIK
8.8	VH SEQ ID NO 602 / VL SEQ ID NO 326 (antibody, IgG4, V domains shown, humanized 11F2; IgG4 S228P/kappa) VH: QVQLQESGPGLVKPSQTLSLTCTVSGGSISSDSAWSWIRQPPGKGLEWIGYIQYSGSTNYNPSLKSRVTISVDTSKNQFSLKLSSVTAADTAVYYCARSVNYYGNSFAVGYWGQGTLVTVSS VL: EIVLTQSPATLSLSPGERATLSCRASQGISDYLHWYQQKPGEAPRLLIKYTSQPATGIPARFSGSGSGTDFTLTISSLEPEDFGVYYCQNGHSFPLTFGAGTKLELK
14	VH SEQ ID NO 602 / VL SEQ ID NO 382 (antibody, IgG4, V domains shown, humanized 11F2; IgG4 S228P/kappa) VH: QVQLQESGPGLVKPSQTLSLTCTVSGGSISSDSAWSWIRQPPGKGLEWIGYIQYSGSTNYNPSLKSRVTISVDTSKNQFSLKLSSVTAADTAVYYCARSVNYYGNSFAVGYWGQGTLVTVSS VL: EIVLTQSPATLSLSPGERATLSCRASQGLSDYLHWYQQKPGEAPRLLIKYASQPATGIPARFSGSGSGTDFTLTISSLEPEDFAVYYCQNGHSFPLTFGQGTKLEIK
14	VH SEQ ID NO 602 / VL SEQ ID NO 494 (antibody, IgG4, V domains shown, humanized 11F2; IgG4 S228P/kappa) VH: QVQLQESGPGLVKPSQTLSLTCTVSGGSISSDSAWSWIRQPPGKGLEWIGYIQYSGSTNYNPSLKSRVTISVDTSKNQFSLKLSSVTAADTAVYYCARSVNYYGNSFAVGYWGQGTLVTVSS VL: EIVLTQSPATLSLSPGERATLSCRASQGVSDYLHWYQQKPGQAPRLLIKYASQPATGIPARFSGSGSGTDFTLTISSLEPEDVAVYYCQNGHSFPLTFGQGTKLEIK
15	VH SEQ ID NO 602 / VL SEQ ID NO 486 (antibody, IgG4, V domains shown, humanized 11F2; IgG4 S228P/kappa) VH: QVQLQESGPGLVKPSQTLSLTCTVSGGSISSDSAWSWIRQPPGKGLEWIGYIQYSGSTNYNPSLKSRVTISVDTSKNQFSLKLSSVTAADTAVYYCARSVNYYGNSFAVGYWGQGTLVTVSS VL: EIVLTQSPATLSLSPGERATLSCRASQGVSDYLHWYQQKPGQAPRLLIKYASQPATGIPARFSGSGSGTDFTLTISSLEPEDFGVYYCQNGHSFPLTFGQGTKLEIK
9	VH SEQ ID NO 602 / VL SEQ ID NO 318 (antibody, IgG4, V domains shown, humanized 11F2; IgG4 S228P/kappa) VH: QVQLQESGPGLVKPSQTLSLTCTVSGGSISSDSAWSWIRQPPGKGLEWIGYIQYSGSTNYNPSLKSRVTISVDTSKNQFSLKLSSVTAADTAVYYCARSVNYYGNSFAVGYWGQGTLVTVSS VL: EIVLTQSPATLSLSPGERATLSCRASQGISDYLHWYQQKPGEAPRLLIKYTSQPATGIPARFSGSGSGTDFTLTISSLEPEDFAVYYCQNGHSFPLTFGQGTKLEIK
10	VH SEQ ID NO 602 / VL SEQ ID NO 334 (antibody, IgG4, V domains shown, humanized 11F2; IgG4 S228P/kappa) VH: QVQLQESGPGLVKPSQTLSLTCTVSGGSISSDSAWSWIRQPPGKGLEWIGYIQYSGSTNYNPSLKSRVTISVDTSKNQFSLKLSSVTAADTAVYYCARSVNYYGNSFAVGYWGQGTLVTVSS VL: EIVLTQSPATLSLSPGERATLSCRASQGISDYLHWYQQKPGQAPRLLIKYASQPATGIPARFSGSGSGTDFTLTISSLEPEDFAVYYCQNGHSFPLTFGQGTKLEIK
9.2	VH SEQ ID NO 602 / VL SEQ ID NO 358 (antibody, IgG4, V domains shown, humanized 11F2; IgG4 S228P/kappa) VH: QVQLQESGPGLVKPSQTLSLTCTVSGGSISSDSAWSWIRQPPGKGLEWIGYIQYSGSTNYNPSLKSRVTISVDTSKNQFSLKLSSVTAADTAVYYCARSVNYYGNSFAVGYWGQGTLVTVSS VL: EIVLTQSPATLSLSPGERATLSCRASQGISDYLHWYQQKPGQAPRLLIKYTSQPATGIPARFSGSGSGTDFTLTISSLEPEDFAVYYCQNGHSFPLTFGQGTKLEIK
10	VH SEQ ID NO 602 / VL SEQ ID NO 350 (antibody, IgG4, V domains shown, humanized 11F2; IgG4 S228P/kappa) VH: QVQLQESGPGLVKPSQTLSLTCTVSGGSISSDSAWSWIRQPPGKGLEWIGYIQYSGSTNYNPSLKSRVTISVDTSKNQFSLKLSSVTAADTAVYYCARSVNYYGNSFAVGYWGQGTLVTVSS VL: EIVLTQSPATLSLSPGERATLSCRASQGISDYLHWYQQKPGQAPRLLIKYTSQPATGIPARFSGSGSGTDFTLTISSLEPEDFAVYYCQNGHSFPLTFGAGTKLELK
13	VH SEQ ID NO 602 / VL SEQ ID NO 470 (antibody, IgG4, V domains shown, humanized 11F2; IgG4 S228P/kappa) VH: QVQLQESGPGLVKPSQTLSLTCTVSGGSISSDSAWSWIRQPPGKGLEWIGYIQYSGSTNYNPSLKSRVTISVDTSKNQFSLKLSSVTAADTAVYYCARSVNYYGNSFAVGYWGQGTLVTVSS VL: EIVLTQSPATLSLSPGERATLSCRASQGVSDYLHWYQQKPGQAPRLLIKYASQPATGIPARFSGSGSGTDFTLTISSLEPEDFAVYYCQNGHSFPLTFGQGTKLEIK
